Target: the molecule itself
Assay: western blot after SDS-PAGE under reducing and non-reducing conditions; isolated specific granules of human neutrophils, blotted with anti-OLFM4 clone #49; 12% polyacrylamide gels

B1: Olfactomedin 4 (OLFM4) (natural protein)
chain: not shown
modifications: highly glycosylated (sites not given); intermolecular disulphide bonds (cysteines not given)
notes: Olfactomedin 4, human, native protein from specific granules of neutrophils; 72 kD under reducing conditions; Multimer of unstated size; also called hGC-1; GW112
- binding result: binds

Source: paper PMC4687705, “Plasma levels of OLFM4 in normals and patients with gastrointestinal cancer” (Journal of Cellular and Molecular Medicine, 2015)
